This is an account of results in US20150080549A1 (Chugai, published 2015).

The chains are these.
T1: biotinylated Recombinant Human TNFR1/Fc Chimera (SinoBiological, Catalog Number 10872-H03H) (human, UniProt P19438 22-211, biotinylated with EZ-Link NHS-PEG4-Biotin (Thermo scientific 21329); sites not stated)
T1 construct: Bought Fc chimera; also called tumor necrosis factor receptor 1; Fc part of the bought chimera not given
T1 sequence (looked up): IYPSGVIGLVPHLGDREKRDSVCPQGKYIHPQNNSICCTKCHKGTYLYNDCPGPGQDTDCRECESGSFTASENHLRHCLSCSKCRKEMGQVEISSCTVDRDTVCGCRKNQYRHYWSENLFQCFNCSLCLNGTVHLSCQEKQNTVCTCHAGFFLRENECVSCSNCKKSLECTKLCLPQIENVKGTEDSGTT

B1: SEQ ID NO: PE-5 (TNFR1 binder) peptide (peptide)
peptide: AP[Sar]IIVS[NMeS][Phg][Phg]D[NMeAla(4-thiazolyl)]TSGSGSGS-{FlPu(urea)}
modifications: lactam N-11; reading uncertain
notes: Translated in ECL Translation Solution T, cyclized and desulfurized; not isolated; also called translation product of template DNA DME-5
B2: SEQ ID NO: PE-4 (TNFR1 binder) peptide (peptide)
peptide: A[dY]IW[Met(O2)]S[Met(O2)][NMePhe(3-Cl)]V[NMeF]DT[NMePhe(3-Cl)]SGSGSGS-{FlPu(urea)}
modifications: lactam N-11; reading uncertain
notes: Translated in ECL Translation Solution T, cyclized and desulfurized; not isolated; also called translation product of template DNA DME-4
B3: SEQ ID NO: PE-6 (TNFR1 binder) peptide (peptide)
peptide: AP[Sar]VITV[NMeS][Phg]SD[NMeA][NMePhe(3-Cl)]SGSGSGS-{FlPu(urea)}
modifications: lactam N-11; reading uncertain
notes: Translated in ECL Translation Solution T, cyclized and desulfurized; not isolated; also called translation product of template DNA DME-6
B4: SEQ ID NO: PE-9 (TNFα binder) peptide (peptide)
peptide: A[NMeAla(4-thiazolyl)]IPVWW[Phe(4-CF3)][Met(O2)]VDW[NMeAla(4-thiazolyl)]SGSGSGS-{FlPu(urea)}
modifications: lactam N-11; reading uncertain
notes: Translated in ECL Translation Solution T, cyclized and desulfurized; not isolated; also called translation product of template DNA DME-9
B5: SEQ ID NO: PE-8 (TNFα binder) peptide (peptide)
peptide: A[Phe(4-CF3)]WWV[Sar]GP[Hyp(Et)]SD[NMeS][Met(O2)]SGSGSGS-{FlPu(urea)}
modifications: lactam N-11; reading uncertain
notes: Translated in ECL Translation Solution T, cyclized and desulfurized; not isolated; also called translation product of template DNA DME-8
B6: SEQ ID NO: PE-10 (TNFα binder) peptide (peptide)
peptide: ATIP[dY]WW[Phe(4-CF3)][Met(O2)]VDW[NMeAla(4-thiazolyl)]SGSGSGS-{FlPu(urea)}
modifications: lactam N-11; reading uncertain
notes: Translated in ECL Translation Solution T, cyclized and desulfurized; not isolated; also called translation product of template DNA DME-10
B7: SEQ ID NO: PE-11 (TNFα binder) peptide (peptide)
peptide: ATWI[NMeF][Phg]W[βAla][Phe(4-CF3)][Phg]DVTSGSGSGS-{FlPu(urea)}
modifications: lactam N-11; reading uncertain
notes: Translated in ECL Translation Solution T, cyclized and desulfurized; not isolated; also called translation product of template DNA DME-11

Starred links: 1 amine or outer side, 2 acyl side, 3 side chain; linkers in the order of their positions; H or OH if unused. Positions of bridges follow the written chain, without caps; N, C: chain ends. Non-standard residues stand in square brackets, D forms with d. Hyp(Et) = (2S,4R)-4-ethoxypyrrolidine-2-carboxylic acid, CCO[C@@H]1C[C@@H](C(=O)[*:2])N([*:1])C1; Phe(4-CF3) = N[C@@H](Cc1ccc(C(F)(F)F)cc1)C(=O)O; NMeAla(4-thiazolyl) = CN[C@@H](Cc1cscn1)C(=O)O; NMePhe(3-Cl) = CN[C@@H](Cc1cccc(Cl)c1)C(=O)O; Met(O2) = CS(=O)(=O)CC[C@H](N)C(=O)O; NMeF = CN[C@@H](Cc1ccccc1)C(=O)O; FlPu(urea) = not defined here; Phg = N[C@H](C(=O)O)c1ccccc1; NMeS = CN[C@@H](CO)C(=O)O; NMeA = CN[C@@H](C)C(=O)O; βAla = NCCC(=O)O; Sar = CNCC(=O)O

The first assay concerns the target T1, biotinylated Recombinant Human TNFR1/Fc …. The assay can be described thus: ECL immunoassay (MSD): biotinylated target on streptavidin plate, translated FlPu(urea)-labelled cyclic peptide (Translation Solution T), anti-fluorescein and SULFO-TAG anti-mouse antibody; no-template control 293. Here is the method:
(§1) 0.5 μl of a 200 mM EDTA solution (pH 8.0, Nacalai, 14362-24) and 0.5 μl of a 100 mM TCEP solution (pH 6.6) were added to 5 μL of the translation mixture, and the mixture was incubated at 37° C. for 120 minutes to cause cyclization reaction. 11 μL of desulfurization buffer (15 mM cysteine, 36 mM TCEP) was added to the cyclization product, and the mixture was incubated at 42° C. for 1 minutes, after which 4 μL of 1 M VA-044 (Wako, CAS No. 27776-21-2) was added and the mixture was allowed to stand at 42° C. for 1 hour.
Immunoassay was carried out using the above peptide solution for ECL assay. 500 nM biotinylated target protein was added at 10 μL per well to MSD Streptavidin MULTI-ARRAY 384-well plate (Meso Scale Discovery, L25SB-1), and reaction was conducted at room temperature for 1 hour with shaking at 500 rpm to immobilize the target protein. 2% skim milk PBS was added at 50 μL per well, and blocking was carried out by allowing to stand at room temperature for 2 hours. The reaction solution was removed and the plate was washed with PBS containing 0.05% Tween 20 (PBST) three times, after which 10 μL of the peptide solution for ECL assay was added and the plate was shaken at room temperature for 50 minutes at 500 rpm. The reaction solution was removed and the plate was washed with PBST three times, after which 10 μL of IgG Fraction Monoclonal Mouse Anti-Fluorescein (Jackson ImmunoResearch, 200-002-037) diluted to 0.5 μg/mL with 2% skim milk PBS was added, and reaction was conducted at room temperature for 50 minutes with shaking at 500 rpm. […] The reaction solution was removed and the plate was washed with PBST three times, after which 35 μl, of 2× Read Buffer T (Meso Scale Discovery, R92TC-3) was added and measurement was carried out using SECTOR Imager 2400 (Meso Scale Discovery).
As for B1, the ECL signal came out at 3760.

For the molecule B2, the ECL signal amounted to 32000. As to B3, the ECL signal is 3610.

In the next assay the target is T2, biotinylated Recombinant Human Tumor Necrosis Factor-alpha (Prospec, Catalog Number #CYT-223) (human, UniProt P01375 77-233, biotinylated with EZ-Link NHS-PEG4-Biotin (Thermo scientific 21329); sites not stated).
T2 construct: Bought protein; also called TNFα; tumor necrosis factor-α
T2 sequence (P01375 77-233 limits assumed): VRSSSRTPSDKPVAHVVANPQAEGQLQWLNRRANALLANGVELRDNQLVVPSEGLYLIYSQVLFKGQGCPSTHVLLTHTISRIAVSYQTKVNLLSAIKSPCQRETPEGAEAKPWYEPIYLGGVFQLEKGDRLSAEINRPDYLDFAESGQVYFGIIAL
The assay can be described thus: ECL immunoassay (MSD): biotinylated target on streptavidin plate, translated FlPu(urea)-labelled cyclic peptide (Translation Solution T), anti-fluorescein and SULFO-TAG anti-mouse antibody; no-template control 232. How it is done:
as §1
Immunoassay was carried out using the above peptide solution for ECL assay. 500 nM biotinylated target protein was added at 10 μL per well to MSD Streptavidin MULTI-ARRAY 384-well plate (Meso Scale Discovery, L25SB-1), and reaction was conducted at room temperature for 1 hour with shaking at 500 rpm to immobilize the target protein. 2% skim milk PBS was added at 50 μL per well, and blocking was carried out by allowing to stand at room temperature for 2 hours. The reaction solution was removed and the plate was washed with PBS containing 0.05% Tween 20 (PBST) three times, after which 10 μL of the peptide solution for ECL assay was added and the plate was shaken at room temperature for 50 minutes at 500 rpm. The reaction solution was removed and the plate was washed with PBST three times, after which 10 μL of IgG Fraction Monoclonal Mouse Anti-Fluorescein (Jackson ImmunoResearch, 200-002-037) diluted to 0.5 μg/mL with 2% skim milk PBS was added, and reaction was conducted at room temperature for 50 minutes with shaking at 500 rpm. The reaction solution was removed and the plate was washed with PBST three times, after which 10 μL of SULFO-TAG Anti-Mouse Antibody (Meso Scale Discovery, R32AC-5) diluted to 1 μg/mL with 2% skim milk PBS was added, and reaction was conducted at room temperature for 50 minutes with shaking at 500 rpm. The reaction solution was removed and the plate was washed with PBST three times, after which 35 μl, of 2× Read Buffer T (Meso Scale Discovery, R92TC-3) was added and measurement was carried out using SECTOR Imager 2400 (Meso Scale Discovery).
B4: the ECL signal stood at 264000.

Regarding B5, the ECL signal worked out at 73300. On the same count and under the same terms, in the case of B6 it was 50700; in that of B7, 149000.
